From article PMC9880023

Molecular target: HA-NRX1βS4(−), expressed on COS-7 cells
Assay: cell-based competitive binding assay (fluorescence microscopy); COS-7 cells expressing HA-NRX1βS4(−); biotin-AβOs fixed at 100 nM monomer equivalent, SorCS1-Fc varied 0–1,500 nM; 1 h at 4°C

B1: SorCS1 ectodomain tagged with human immunoglobulin Fc region (SorCS1-Fc) (Fc fusion)
chain: SLSCCPPQHPSSTPRRTLTPRGFPHPGPLGRAPATPPPLFMRPLFAVAPGDRALFLERAGGSRVSVATAARSGRRRRSGTEPEKIEPGEGASRSRRDMLKDGGQQGLGTGARDPGKATRFRMEELRLTSTTFALTGDSAHNQAMVHWSGHNSSVILILTKLYDYNLGSITESSLWRSTDYGTTYEKLNDKVGLKTILSYLYVCPTNKCKIMLLTDPEIESSLLISSDEGATYQKYRLNFYLQSLLFHPKQEDWILAYSQDQKLYSSAEFGRRWQLIQESVVPNRFYWSVMGSSKEPDLVHLEARTVDGHSIYLTCRMQNCTEANRNKPFPGYIDPDSLIVQDDYVFVQLTSGGRPHYYVSYRRSPFAQMKLPKYALPKDMHVISTDENQVFAAVQEWNQNDTYNLYISDTRGVYFTLALENVRSSRGPEGNVMIDLYEVAGIKGMFLANKKIDNQVKTFITYNKGRDWRLLQAPDADLRGDPVHCLLPYCSLHLHLKVSENPYTSGIIASRDTAPSIIVASGNIGSELSDSDISMFVSSDAGNTWRQIFEEEHSILYLDQGGVLVAMKHTSLPIRHLWLSFDEGRSWSKYSFTSIPLFVDGVLGEPGEETLIMTVFGHFSHRSEWQLVKVDYKSIFDRRCAEEDYRPWQLHSQGEACIMGAKRIYKKRKSERKCMQKYAGAMESEPCVCTEADFDCDYGYERHSNGQCLPAFWFNPSSLSKDCSLGQSYLNSAGYRKVVSNNCTDGVREQYTAKPQKCPGKAPRGLRIVTADGKLTAEQGHNVTLMVQLEEGDVQRTLIQVDFGDGIAVSYVNLSSMEDGIKHVYQNVGIFRVTVQVDNSLGSDSAVLYLHVTCPLEHVHLSLPFVTTKNKEVNATAVLWPSQVGTLTYVWWYGNNTEPLITLEGSISFKFTSEGMNTITVQVSAGNAILQDTKTIAVYEEFRSLRLAFSPNLDDYNPDIPEWRRDISRVIKKSLVEATGIPSQHILVAVLPGLPTAAELFVLPYQDGTRENKRSPEDLEQISEVLIHKLNQNLVHFELKPGVQVLVHAAHLTAAPLVDLTPTHS
Binder B1 has an IC50 of 92.8 nM.
